In publication PMC12561925:

B1: recombinant soluble murine EphB3 Fc fusion protein (Fc fusion)
chain: LEETLMDTKWVTSELAWTSHPESGWEEVSGYDEAMNPIRTYQVCNVRESSQNNWLRTGFIWRREVQRVYVELKFTVRDCNSIPNIPGSCKETFNLFYYEADSDVASASSPFWMENPYVKVDTIAPDESFSRLDAGRVNTKVRSFGPLSKAGFYLAFQDQGACMSLISVRAFYKKCASTTAGFALFPETLTGAEPTSLVIAPGTCIANAVEVSVPLKLYCNGDGEWMVPVGACTCATGHEPAAKESQCRACPPGSYKAKQGEGPCLPCPPNSRTTSPAASICTCHNNFYRADSDSADSACTTVPSPPRGVISNVNETSLILEWSEPRDLGGRDDLLYNVICKKCRGSSGAGGPATCSRCDDNVEFVPRQLGLTERRVHISHLLAHTRYTFEVQAVNGVSGKSPLPPRYAAVNITTNQAAPSEVPTLHLHSSSGSSLTLSWAPPERPNGVILDYEMKYFEKSKGIASTVTSQKNSVQLDGLQPDARYVVQVRARTVAGYGQYSHPAEFETTSERGSGAQQLQEQLPL

Legend:
[1] = target: MHV68 gL-gH fusion protein (gL-Linker-gH-Linker-His6) (murine gammaherpesvirus 68 (MHV68)); assay: ELISA; MHV68 gL-gH fusion protein coated at 2.5 μg/ml in PBS on Maxisorp plates; soluble dimeric Eph-Fc proteins 2 h at room temperature in 1% BSA in PBS; detected with HRP-conjugated ProteinG; OD 450 nm; four-parameter dose-response fit
[2] = target: MHV68 gL-gH fusion protein (gL-Linker-gH-Linker-His6) (murine gammaherpesvirus 68 (MHV68))

Molecule | EC50 [1] [nM] | reduction of MHV68 ORF59-GFP infection of the murine endothelial cell line SVEC4-10 after pre-incubation of the virus with 100 nM homodimerized mEphA4-Fc [2] [%] | inhibition of MHV68 ORF59-GFP infection of human fibroblasts (HFF) and endothelial cells (TIME) after pre-incubation of the virus with 100 nM homodimerized mEphB3-Fc [2] [%]
recombinant soluble murine EphA4 Fc fusion protein (from UniProt Q03137-1 20-547) | 3.6 | 25 | –
B1 | 2.3 | – | 30
